# Measurements taken from the DeepSol protein solubility set.
# Assay: soluble on expression in E. coli; label from the status in PepcDB or PDB records
row,Sequence,soluble on expression in E. coli
1,MRLNFAYPATGLQKSFEVDEEKKLRLFFEKRMSQEVAIDALGDEWKGYVVRIGGGNDKQGFPMKQGILTNGRVRLLLKKGQSCYRERKNGERKRKSVRGCIVDANMSALSLVIVKKGDGEIEGLTDSVLPRKLGPKRASKIRKLFNLTKHDDVTKYVITHDKTFPDGVTKTIAPKIQRLITPARIARKKYLLRQKRNQKIKMRDDAAAYHKLLAKYSKEEHDAKIARRRSSASHHSESEVKKTSKK,not soluble
2,MRPEERRRHILELLRQRERISVDELARTLSTSQETIRRDLAALAEQGLVSKFHGGAALPPSGEHENAFQTRMNEHAQEKRAVARYAAGLFGPGDSIFIDTGTTTLLFARELARQSHLTVITNSLLIAGSVGASGNRAFMIGGEYRPESEQNVGALAIEQIARFNAEHAVITVGALNGDGAMDFSIEEAEIARAMIAQARQLTVIADSSKLGRRALFQVFPLSRINRLVVDRKPTGELWEALQQARVEVHEAPLRTPQALEHHHHHH,not soluble
3,MRPMGHAESVMSRFAHRVKSRRSWKDQGLRAFLKAMVARIDGIRWRKGPLEAEEPQSAVSASTKSKRIEQAKRKAGRLWADVVRQNLPCLQQSSGTPIHQALSALRDGGWV,not soluble
4,MRPRRSLLSVPAINIRALEKIRELDCDGVILDLEDSVAPDMKGKARENLEKLFSGPPFDGRETIIRINPLSTPDGKADLQLVLSCRPDAVLLPKVEQPSDIHDVADFLAEADAPEHLKIWAMIETPLGVLNAASIADAAHTPNARLAAFVIGLNDLRKETHVPRLPGRTYLVPWMMQVILAARAYGLDVIDSVSNDFRDIEAFEAECEQGRAMGFDGKMLIHPAQIEAANRHFGPDEATLAEARAIIAAFAKPESVELNIINMNGQMIERLHVGQAERLVAMADIIAQRKAKKT,not soluble
5,MRPSAPAISRQTLLDEPRPGSLTIGYEPSEEAQPTENPPRFSWLPDIDDGARYVLRISTDPGFTDKKTLVFEDLAWNFFTPDEALPDGHYHWCYALWDQKSATAHSNWSTVRSFEISEALPKTPLPGRSARHAAAQTSHPRLWLNSEQLSAFADAVAKDPNHCGWAEFYEKSVEPWLERPVMPEPQPYPNNTRVATLWRQMYIDCQEVIYAIRHLAIAGRVLGRDDLLDASRKWLLAVAAWDTKGATSRAYNDEAGFRVVVALAWGYDWLYDHLSEDERRTVRSVLLERTREVADHVIAHARIHVFPYDSHAVRSLSAVLTPACIALQGESDEAGEWLDYTVEFLATLYSPWAGTDGGWAEGPHYWMTGMAYLIEAANLIRSYIGYDLYQRPFFQNTGRFPLYTKAPGTRRANFGDDSTLGDLPGLKLGYNVRQFAGVTGNGHYQWYFDHIKADATGTEMAFYNYGWWDLNFDDLVYRHDYPQVEAVSPADLPALAVFDDIGWATIQKDMEDPDRHLQFVFKSSPYGSLSHSHGDQNAFVLYAHGEDLAIQSGYYVAFNSQMHLNWRRQTRSKNAVLIGGKGQYAEKDKALARRAAGRIVSVEEQPGHVRIVGDATAAYQVANPLVQKVLRETHFVNDSYFVIVDEVECSEPQELQWLCHTLGAPQTGRSSFRYNGRKAGFYGQFVYSSGGTPQISAVEGFPDIDPKEFEGLDIHHHVCATVPAATRHRLVTLLVPYSLKEPKRIFSFIDDQGFSTDIYFSDVDDERFKLSLPKQF,soluble
6,MRPSSRSAGRRTSMRLTTRDFDRTGRPLRFTELGFGSSPLGNLYRAISEEEAQALLERAWAGGIRYFDTAPLYGYGLAEERLGRFLAGHPRSDYVLSTKVGRLLRPVEPGEARDGLGKFFEVPERKERFDYGYDGVMRSLEASLDRLGLDRVDVLYAHDLDLFTHGSQEALEARLAEFMAGGYRALVELRDQGVISAFGAGVNEWQPCQWLAERGEFDLFLLAGRYTLLEQEALESFLPLAEERGIGIVIGGPYNSGVLATGPKPGSFYDYRLAPQAVLDRVAQIHTICERWGVRMFEAAFQFPLRHPAVLSVIPGPQSVGEVMENRIAADAELPPGLWEDLKVAGLLRPDAPV,not soluble
7,MRQWTAIHLAKLARKASRAVGKRGTDLPGQIARKVDTDVLRKLAEQVDDIVFISGTNGKTTTSNLIGHTLKANNIQIIHNNEGANMAAGITSAFIMQSTPKTKIAVIEIDEGSIPRVLKEVTPSMMVFTNFFRDQMDRFGEIDIMVNNIAETISNKGIKLLLNADDPFVSRLKIASDTIVYYGMKAHAHEFEQSTMNESRYCPNCGRLLQYDYIHYNQIGHYHCQCGFKREQAKYEISSFDVAPFLYLNINDEKYDMKIAGDFNAYNALAAYTVLRELGLNEQTIKNGFETYTSDNGRMQYFKKERKEAMINLAKNPAGMNASLSVGEQLEGEKVYVISLNDNAADGRDTSWIYDADFEKLSKQQIEAIIVTGTRAEELQLRLKLAEVEVPIIVERDIYKATAKTMDYKGFTVAIPNYTSLAPMLEQLNRSFEGGQS,not soluble
8,MRRGLAWVGALLLLGGCVSSRPIDEIQIIQQMGYDFENGRYTGTAVYPTFKQGPMTKPNMLTTTSPTIYDLIPRLSSKSALPIEEGQLRLILFGKEFARRGVTQITHSLARNNKVGSHLLLGVAEESAKELLKITAKTTLSDTLYLPNLVEQNEQSMNLPKTNLHLFLYRYFSPGSDPFLPYFEKKGDFVKLEGVALFRDDQYVGHVSLRDSFLMKILLGETKNGVYQLKVGNRGKQGEDRVMLQNLWAKPKYAWKRDGSRHVLDVFIHIHASVRDYPSWLDQPGGDLFADVKKKMQNELEHNMRRLFRYFQKKRIDPLGIGDFVRSVTRHWDSDAFYREYPDLDIRPHVTVDIVHTGIGE,not soluble
9,MRRVSINSFLEPNSPNVPNRVTIPDGDLRRNSDDTATDRISLTNQLGKSAYSTTTEDSIDSETSETRMDSSRTSEISGNVKEDPVSENQYVLENSESSESIVVDLEMPGMTLRSKASPRKRYMSKKEKDLNDEKKNFKDLVLTIGQNQIQDPDEDFQITKEAIDLLQSESDKILLEMFTSSNAIATAGERDILTPTDIQTARHIQMIMKKYKK,not soluble
10,MRRVVVTGLGALTPIGVGQEAFHKAQLAGKSGVRPITRFDASALPVRIAAEVDVDPGAYLDRKELRRLDRFVQYALIAAQLALEDAGLKPEDLDPERVGTLVGTGIGGMETWEAQSRVFLERGPNRISPFFIPMMIANMASAHIAMRYGFTGPSSTVVTACATGADALGSALRMIQLGEADLVLAGGTEAAITPMAIGAFAVMRALSTRNEEPEKASRPFTLSRDGFVMGEGAGVLVLEAYEHAKKRGARIYAELVGFGRSADAHHITEPHPEGKGAALAMARALKDAGIAPEQVGYINAHGTSTPVGDRAEVLAIKRVFGDHAKRLMVSSTKSMIGHLLGAAGAVEAIATVQALYHGVIPPTINLEDPDPELDLDFVPEPREAKVDYALSNSFAFGGHNAVLAFKRV,soluble
11,MRSAVTFFTFFLDKAEPISTRDTSSESIIPEQEKRRDDMRAVVLVPFLKQQRENRDAASAPAAPGRSVEAKLEEAKGLALAIDLEVTQGLVVPVNQPRPATLFGTGKIEEIGHLLDETNSGLVIVDHPLTPVQQRNLESSGTPRLSTAPVAAALEHHHHHH,not soluble
12,MRSGKIFHHFDQWGIIIRKDMLKQLALFIALFGAVTAWNRQNHFGNPCYLCSCFTVYTDRDVAVPLRPYAMAIDGYDTTEDRCLATCQRDQRCRAAVYGMVGGRSVFTCEFYEKFNTKSVPVYTTYVNMYMKRSSECKLPIAHLSSIEMIPADNSSLKRRAKLEKLIGRKNPFLG,not soluble
13,MRSHNLFGDMCEAFMTKYVMTELRPKTQTLYKSTFNKYVTPYKNIDIERYKYTDWIAYFDWVKKESSSANAGSVLKRFKAVANWAKARGQIKHSHLIDIPIKLEHHHHHH,not soluble
14,MRSIPLCQLLLLLTILSIDARPSDHFLSFSKTELCAAEPHLKVCQPNSRAQSSKIINGDGLTAERLEQLSKHSNKGFIEEEANSGRSSAASNVDDPFEDVATRAPPSSNEYEEERYSHRKHKHHHRKSHRGHHYGSPYQQYYQQQQHHDPLTYRVYPGLHPKDGRYCSDMKGMFAYTCAPSKPLRIDLVEFCKDYAAFCNVPNFHRLPGPRMGPPLTDKGVGHVDVNGHFGFGVGAVPGLEVGVGWGVDVGPIPGMGESVGVGVGLDLGIMGSKTPEAFRRGQDDPNAKGGGIVGINGGVGVKAPGTGDGVGVGTGLGVGK,not soluble
15,MRSSKSPFKRKSHSRETSHDENTSFFHKRTISGSSAHHSRNVSQGAVPSSAPPVSGGNYSHKRNVSRASNSSQTSNFLAEQYERDRKAIINCCFSRPDHKTGEPPNNYITHVRIIEDSKFPSSRPPPDSKLENKKKRLLILSAKPNNAKLIQIHKARENSDGSFQIGRTWQLTELVRVEKDLEISEGFILTMSKKYYWETNSAKERTVFIKSLITLYIQTFEGHVPELVNWDLSLFYLDERSYQRAVITNRPGSVSPIKSPTSNFTTNTTQSVGSVPFSAPTERTRRSETESVNPVSTPASVEYHAGMKSLNKAPYSSNS,soluble
16,MRTFCILKDFKIFIIFFLQNPCGGEGLNILERIAKEVQEETKVRLHARNVERVLQALLKTGDFWKIVDYSDLPVPAASGIIKKFLDEGIVFIDENENILFTQKGLDLVKELGIEPFEEHKCRACEGRGIPFYDDKELYRTFVEIAKDRPKPVQQYDQGSVTPETTVSRVLFLDSRGDLRGKEIIVMGAEDDLTGLAIALTRKAKRVLIIDIDERLIDFDNRIIKELGIDNAEAMVWDLRNPYTEDFLGKFDVFITDPPETFAAFRAFIGRGIATLKDAGCAGYFGLTLRDSSIFRWKEFQEILINEYGVVITDIIQDFNDYMNWEYHPETRAAQIAPVKKNPTDIWYRSAWYRIETLPGFKRWNEPISDEVFYLDEEGSTT,not soluble
17,MRTGKAWVWQLRRAAERTRRPFAGDNSPTFTVEHTHRMYPCHVFCNPLIGTIQMKACSRSERREGSKKMEAAKASKPDVSAVYAVDLSQRPVSQGDAAREKAALLQLARRMHEAPGEMLRRFVELAMELTGGISAGISLLEETEPPPVFRWHHLKGILSPFNGATTPRDFSPCGITLDRSAPTLTIHPERVYDWIPPGLFLPEVLLVPLYIGRTEPLGTLWIVADRIEHFHCGHAATMQELAGFIGIALKMVRSEEELQQALEQQELLTREMGHRLKNLFTILDSMVRISARSTDNKDDLVALLSGRLHALAAAHSLVKPSFSDVQGAASSLAELLSIVLEPHEQPAISGKRRLSLTGPTVLCGEQSVNGLALVFHELATNAAKYGSLCGDLGTVDVVWQIDGDDLGITWREDGGAQATSSSPASKGFGSTLVEATVIRQFGGTLSYDWRSTGLSVHIVIPLCRLAQ,not soluble
18,MRTIEFQAKQLLMEKLDKNLLDHAKSLTDGNGPQIVDVYGLQQLAEVHCYLKTTHQFDPAEVEALLQFADPLEAACHCWEMNTHEYSFPICDLLRETRARELFELAKPEPPAKLSVREQLRAAVKEARQNLAPEERTKGGEAR,not soluble
19,MRTVDFTPLYRNAIGFDRLLNMMENSAAKNAQGGYPPYNIEQKEDNQYRITMAVAGFGDEEIDITQQENTLIVRGERKPEESKNYIYQGIAERDFERKFQLADYVKVTGATMEHGLLHIDLEREIPEAMQPRKIAINGKHLLENK,not soluble
20,MRVAIALAKDDATRVYPGPFGHAPRYAIYEAGPSGELVLLEIRENPYAKAHGEEKHAKMRELLRDVDLKVGARFGHKGSLGAFPLADRVEVGPVSLEEALARLKERSSA,soluble
21,MRVDRRTFLKATGAALGALALSGLPARAQGLEGEDLEHLEQALKEVFGKGFKDLTPSDAVKLNMPAIAESGANVPAEVEVALPKEQVKAIHLFADKNPTPHILAFMPMKAEPYYATRVRLAETTAIRAVVETQDGKLLLASASTRVTVGGCG,soluble
22,MRVFKTILLVVLMTLSQAMVAQTSPIPMLERAANQIISILKENKARLKSNPEIIYKAVEENLLPNVDVAGMSRSVLGRQAWSKATEAERVEFSKAFTRLVIRTYSSPLAQYSDETVQFLPLRGSLNSRFIRVNSVIVRSAGQNIPLSYSLVSKNGKWKIYDISVEGVSLLQSFRSQFAQALQHSSISQVIKEMQQKQIKKASLEHHHHHH,not soluble
